This passage reports Inhibition of binding (%), units/L and % inhibition of TSH-biotin binding results from US20110300138A1 (published 2011).

Assay [1] addresses TSH receptor (full length human TSHR) (human) (UniProt P16473). As to the kind of experiment: competition ELISA: inhibition of M22 Fab-peroxidase (competitor) binding to TSHR coated wells; test sample at 0.01 µg/mL diluted in HBD serum pool. On the technique in general: ELISA stands for enzyme-linked immunosorbent assay.
Assay [2] shares this target. Nature of the assay: competition ELISA: inhibition of M22 Fab-peroxidase (competitor) binding to TSHR coated wells; test sample at 0.01 µg/mL diluted in assay buffer.
In assay [3] the target is TSHR (full length) coated on tubes (human) (UniProt P16473). Nature of the assay: inhibition of 125I-K1-18 Fab (competitor) binding to TSHR coated tubes; test sample 1 µg/mL in assay buffer.
Assay [4] addresses thyroid stimulating hormone receptor (TSHR), full length human TSHR (human) (UniProt P16473). As to the kind of experiment: TSH-biotin competition ELISA, TSHR coated wells; 0.1 µg/mL in HBD serum.
Assay [5] addresses TSH receptor (TSHR), full length human, coated on tubes (human) (UniProt P16473). As to the kind of experiment: inhibition of 125I-K1-18 IgG binding to TSHR coated tubes; competitor 125I-K1-18 IgG; sample at 0.01 µg/mL in HBD serum.
For assay [6], the target named is TSH receptor (full length human TSHR) coated on tubes (human) (UniProt P16473). Nature of the assay: 125I-TSH binding inhibition read against NIBSC 90/672; 30 ng/mL, in serum.
Assay [7] has as its target TSHR (thyroid stimulating hormone receptor), full length human (human) (UniProt P16473). As to the kind of experiment: negative control; competitor ^125I-K1-70 IgG, TSHR coated tubes; 0.1 µg/mL in HBD.
Assay [8] has as its target TSH receptor (TSHR) coated on tubes (human) (UniProt P16473). Nature of the assay: inhibition of 125I-K1-70 IgG binding to TSHR coated tubes; negative control 0.1 µg/mL in HBD serum pool.
Assay [9] has the same target. Nature of the assay: inhibition of 125I-K1-70 IgG binding to TSHR coated tubes; negative control 0.01 µg/mL in assay buffer.
In assay [10] the target is TSHR (full length) coated on tubes (human) (UniProt P16473). Nature of the assay: inhibition of 125I-K1-18 Fab (competitor) binding to TSHR coated tubes; negative control 10 µg/mL in assay buffer.
The target of assay [11] is TSH receptor (full length human TSHR) (human) (UniProt P16473). As to the kind of experiment: competition ELISA: inhibition of M22 Fab-peroxidase (competitor) binding to TSHR coated wells; negative control at 1 µg/mL diluted in HBD serum pool.
Assay [12] deals with TSH receptor (TSHR) coated on tubes (human) (UniProt P16473). As to the kind of experiment: inhibition of 125I-K1-70 IgG binding to TSHR coated tubes; negative control 0.1 µg/mL in assay buffer.
Assay [13] concerns the target human thyroid stimulating hormone receptor (TSHR), full length (human) (UniProt P16473). As to the kind of experiment: 125I-K1-70 Fab (competitor) binding to TSHR coated tubes; negative control MAb 10 µg/mL in HBD serum.
Assay [14] addresses TSH receptor (TSHR) coated on tubes (human) (UniProt P16473). As to the kind of experiment: inhibition of 125I-K1-70 IgG binding to TSHR coated tubes; negative control 10 µg/mL in assay buffer.
For assay [15], the target named is TSH receptor (TSHR), full length human, coated on tubes (human) (UniProt P16473). Nature of the assay: inhibition of 125I-K1-18 IgG binding to TSHR coated tubes; competitor 125I-K1-18 IgG; negative control sample at 0.1 µg/mL in HBD serum.
Assay [16] deals with TSHR (thyroid stimulating hormone receptor), full length human (human) (UniProt P16473). As to the kind of experiment: negative control; competitor ^125I-K1-70 IgG, TSHR coated tubes; 1 µg/mL in HBD.
For assay [17], the target named is TSH receptor (TSHR), full length human, coated on tubes (human) (UniProt P16473). As to the kind of experiment: inhibition of 125I-TSH binding to TSHR coated tubes; 0.01 µg/mL, diluted in assay buffer; mean of duplicates.
The target of assay [18] is thyroid stimulating hormone receptor (full length human TSHR) (human) (UniProt P16473). Nature of the assay: ELISA: inhibition of M22 Fab-peroxidase (competitor) binding to TSHR coated wells; 0.01 µg/mL, diluted in HBD serum pool.
Assay [19] has as its target human TSH receptor (full length) coated on ELISA plate wells (human) (UniProt P16473). As to the kind of experiment: TSH-biotin binding inhibition ELISA, TSHR coated wells; 0.1 µg/mL in assay buffer + 100 µg/mL 5B3 IgG.
Assay [20] has as its target TSH receptor (TSHR), full length human, coated on tubes (human) (UniProt P16473). As to the kind of experiment: inhibition of 125I-TSH binding to TSHR coated tubes; 0.01 µg/mL, diluted in HBD serum pool.
The target is the same in assay [21]. As to the kind of experiment: inhibition of 125I-K1-18 IgG (competitor) binding to TSHR coated tubes; test sample at 0.1 µg/mL in HBD serum pool.
Assay [22] addresses thyroid stimulating hormone receptor (full length human TSHR) (human) (UniProt P16473). As to the kind of experiment: ELISA: inhibition of M22 Fab-peroxidase (competitor) binding to TSHR coated wells; 10 µg/mL, diluted in HBD serum pool.
The target of assay [23] is TSH receptor (TSHR), full length human, coated on tubes (human) (UniProt P16473). Nature of the assay: inhibition of 125I-K1-18 IgG (competitor) binding to TSHR coated tubes; test sample at 0.1 µg/mL in assay buffer.
The target in assay [24] is thyroid stimulating hormone receptor (full length human TSHR) (human) (UniProt P16473). Nature of the assay: ELISA, inhibition of TSH-biotin binding to TSHR coated wells; 0.1 µg/mL, diluted in HBD serum pool.
The target in assay [25] is TSH receptor (TSHR) coated on tubes (human) (UniProt P16473). Nature of the assay: inhibition of 125I-K1-70 IgG binding to TSHR coated tubes; sample 1 µg/mL in HBD serum pool.
For assay [26], the target named is human thyroid stimulating hormone receptor (TSHR), full length (human) (UniProt P16473). As to the kind of experiment: 125I-K1-18 Fab competition, TSHR coated tubes; 100 µg/mL in HBD.
Assay [27] concerns the target TSH receptor (TSHR), full length human, coated on tubes (human) (UniProt P16473). Nature of the assay: inhibition of 125I-TSH binding to TSHR coated tubes; 0.1 µg/mL, diluted in HBD serum pool.

As to 9D33 IgG (antibody), the Inhibition of binding (%) in assay [1] is 6.2%; in assay [2] it was 14.8%; in assay [3], 66.5%; in assay [4] it was 39%; in assay [5], 5.3%.

Molecule M22 IgG (antibody) gave a units/L in [6] of 4.3 units/L.

5B3 IgG (antibody): the Inhibition of binding (%) in assay [7] was -3.6%; in assay [8], 9.4%; in assay [9], 3.2%; in assay [10], 0.6%; in [11], 9.7%; in assay [12] it was 1%. Also, the Inhibition of binding (%) in assay [13] was -5.7%; in assay [14], -2.1%; in assay [15] it was -7.8%; in assay [16] it was -1.5%; in assay [17], -5.8%.

B1: 5C9 IgG (antibody, from another filing, V domains shown)
VH: EVQLVESGGGLIQPGGSLRLSCAASGFTVSSNYMSWVRQAPGKGLEWVSVTYSGGSTSYADSVKGRFTISRDNSKNTLYLQMNSLRAEDTAVYYCARGGRYCSSISCYARSGCDYWGQGTLVTVSS
VL: AIQMTQSPSSLSASVGDRVTITCRASQSISNYLNWYQQKPGKAPKLLIYAASSLQSGVPSRFSGSGSGTDFTLTISSLQPEDFATYYCQQSYSSPSTTFGQGTKLEIK
In the case of B1, the Inhibition of binding (%) is 0.9% in assay [18]; -5.5% in assay [20]; 21.3% in assay [21]; 13% in assay [22]; 33.4% in assay [23]; 10.4% in assay [24]. Moreover, the Inhibition of binding (%) in assay [25] worked out at 15.4%; in [26], 61.3%; in assay [27], 7%. Besides, the % inhibition of TSH-biotin binding in assay [19] is 36.3%.
